Consider one protein from article PMC4767637 (Journal of molecular biology, 2016).

The data set concerns the molecule itself. The data set is described as follows: NMR.

B1: Tyr-705-phosphorylated STAT3 (127-711)-His6 (domain or fragment, human, UniProt P40763 127-711, looked up)
chain: GQANHPTAAVVTEKQQMLEQHLQDVRKRVQDLEQKMKVVENLQDDFDFNYKTLKSQGDMQDLNGNNQSVTRQKMQQLEQMLTALDQMRRSIVSELAGLLSAMEYVQKTLTDEELADWKRRQQIACIGGPPNICLDRLENWITSLAESQLQTRQQIKKLEELQQKVSYKGDPIVQHRPMLEERIVELFRNLMKSAFVVERQPCMPMHPDRPLVIKTGVQFTTKVRLLVKFPELNYQLKIKVCIDKDSGDVAALRGSRKFNILGTNTKVMNMEESNNGSLSAEFKHLTLREQRCGNGGRANCDASLIVTEELHLITFETEVYHQGLKIDLETHSLPVVVISNICQMPNAWASILWYNMLTNNPKNVNFFTKPPIGTWDQVAEVLSWQFSSTTKRGLSIEQLTTLAEKLLGPGVNYSGCQITWAKFCKENMAGKGFSFWVWLDNIIDLVKKYILALWNEGYIMGFISKERERAILSTKPPGTFLLRFSESSKEGGVTFTWVEKDISGKTQIQSVEPYTKQQLNNMSFAEIIMGYKIMDATNILVSPLVYLYPDIPKEEAFGKYCRPESQEHPEADPGSAAPYLKTKFI
modifications: phosphotyrosine at 705
For B1, the “dH (van't Hoff, monomer-dimer equilibrium, from I568 and I654)” value is 14.8 ± 1.1 kcal/mol; the “dH (van't Hoff, monomer-dimer equilibrium, from I653 and I711)” value came out at 12.8 ± 0.5 kcal/mol.
